Results on one molecule are retold here after patent US6713269B2, “Methods for identifying potential therapeutic agents for treatment of osteoporosis using mitogenic indices” (co.don Aktiengesellschaft, priority 1995, dated 2004).

This assay deals with human osteoblast precursor cells. The experiment in a line: Cell proliferation rate under the influence of growth factors, using bromodeoxyuridine incorporation (BrdU incorporation). The settings on record: for Absorbance mean value: 54 h incubation + 18 h BrdU labelling, OD at 405 nm. The class given is cell-based. Here is the method:
3,000 osteoblastic cells from fractions t1 to 2 up to the second passage, recovered from osteoporotic patients (OP cells), per well of a 96-well microwell plate were incubated in the presence of 10% FCS and 10% inactivated human control serum in a cell culture medium (α-MEM and HAM-S F12 medium […]) for 48 h, 120 h and 192 h. In parallel, 3,000 osteoblastic cells from non-osteoporotic patients were incubated under the same conditions. The number of intact cells was determined by means of trypan blue staining and counting in a counting chamber. 4. Determination of the cell proliferation rate under the influence of the three growth factors 1, 2 and 3 using bromodeoxyuridine incorporation (BrdU incorporation) Growth factor 1 =TGF-β2
Cells from fraction 1 and/or 2 of each punched-out bone piece up to the 2nd passage were used in the proliferation test.
3 ×10^3 cells from the first and/or second passage per well of a 96-well plate and 200 μl of medium were used.
The cells were cultivated for three days under the conditions previously described and subsequently cultivated further for one day in medium with no serum until subconfluence was reached.
Thereafter, the three growth factors 1, 2 and 3 were added to the cells at four different final concentrations (100, 10, 1, and 0.1 ng/ml medium).
Cells in a medium containing 10% FKS and in a medium containing 5% Ultroser served as controls.
Triplets were set up for all concentrations and controls.
Six wells including cells, to which no bromodeoxyuridine had been added during the proliferation test served as blank controls.
After 54 hours of incubation with the growth factors, the proliferation test (5-Bromo-2′-deoxyuridine Labeling and Detection Kit III by Boehringer Mannheim) was initiated by adding 20 μl of labelling solution diluted 1:90 in 1% BSA medium and subsequent incubation for 18 hours.
The proliferation test was conducted according to the manufacturer's instructions.
Evaluation of the proliferation test was effected by measuring the optical density (OD) at 405 nm in an ELISA reader. After 60 minutes of color development, the absorbance was measured 12 times at intervals of 5 minutes.

B1: TGF-β2: protein growth factor 1 tested for mitogenic effect on osteoblast cells (protein, UniProt P61812 303-414, looked up)
Transforming growth factor …: ALDAAYCFRNVQDNCCLRPLYIDFKRDLGWKWIHEPKGYNANFCAGACPYLWSSDTQHSRVLSLYNTINPEASASPCCVSQDLEPLTILYYIGKTPKIEQLSNMIVKSCKCS
For B1, the Absorbance mean value (0.1 ng/ml medium) was 0.150, the Absorbance mean value (1 ng/ml medium) came to 0.170, the Absorbance mean value (10 ng/ml medium) amounted to 0.190 and the Absorbance mean value (100 ng/ml medium) came to 0.190. Where the note is “osteoblast cells from osteoporosis patients, FIG. 5”, the “mitogenic effect (stimulative capability of cell proliferation, dose-effect curves)” value is listed as “significant dose-dependent mitogenic effect”.
